Consider 39 variants from the RNAGym collection of RNA variant scans (doi:10.7554/elife.90254).

B1: LINE1-full (parent)
chain: UACGUAGGUGGUUUUCCCCUGAUAGUGCUAAGGGGGCCUGGAAGUUUGGACUGGGCAGAGCUCAACACAGCGUGGCAAAGUGGCUGUGGCUAGACUGCCUCUCUGGAUUCCUCGUCACUCAGCAGGGCAUCUCUGAGAGAAAUGCC

Variants of B1 are the subject of the data set. The experiment in a line: self-cleavage, relative activity (ratio to wild type); higher = more cleavage; in vitro, sequencing; the parent is a self-cleaving ribozyme.
As to UACGUAGGUGGUUUUCCCCUGAUAGUGCUAAGGGGGCCUGGAAGUUUGGACUGGGCAGAGAUCAACACAGCGUGGCAAAGUGGCUGUGGCUAGGCUGCCUCUCUGGAUUCCUCGUCACUCAGCAGGGCAUCUCUGAGAGAAAUGCC, the self-cleavage is 0.04. As for UACGUAGGUGGUUUUCCCCUGAUAGUGCUAAGGGGGCCUGGAAGUUUGGACUGGGCAGAACACAACACAGCGUGGCAAAGUGGCUGUGGCUAGACUGCCUCUCUGGAUUCCUCGUCACUCAGCAGGGCAUCUCUGAGAGAAAUGCC, the figure is 0.01; as for UACGUAGGUGGUUUUCCCCUGAUAGUGCUAAGGGGGCCUGGAAGUUUGGACUGGGCAGAACUCAACACAGCGUGGCAAAGUGGCUGUGGCUAGACUGCCCCUCUGGAUUCCUCGUCACUCAGCAGGGCAUCUCUGAGAGAAAUGCC, 0.03. With UACGUAGGUGGUUUUCCCCUGAUAGUGCUAAGGGGGCCUGGAAGUUUGGACUGGGCAGAUCUCAACACAGCGUGGCAAAGUGGCUGUGGCUAGACUGCCUCUCUGGAUUCCUCGUCACUCCGCAGGGCAUCUCUGAGAGAAAUGCC the figure was 0.03; with UACGUAGGUGGUUUUCCCCUGAUAGUGCUAAGGGGGCCUGGAAGUUUGGACUGGGCAGAGAUCAACACAGCGUGGCAAAGUGGCUGUGGCUAGACUGCCUCUCUGGAUUCCUCGUCACUCAGCGGGGCAUCUCUGAGAGAAAUGCC, 0.04; with UACGUAGGUGGUUUUCCCCUGAUAGUGCUAAGGGGGCCUGGAAGUUUGGACUGGGCAGAGAUCAACACAGCGUGGCAAAGUGGCUGUGGCUAGACUGCCUCUCUGGAUUCCUCGUCACUCAGUAGGGCAUCUCUGAGAGAAAUGCC, 0.03.

Turning to UACGUAGGUGGUUUUCCCCUGAUAGUGCUAAGGGGGCCUGGAAGUUUGGACUGGGCAGAACUCAACACAGCGUGGCAAAGUGGCUGUGGCUAGACUGCCUCUCUGGAUUCCACGUCACUCAGCAGGGCAUCUCUGAGAGAAAUGCC, the self-cleavage is 0.04. As for UACGUAGGUGGUUUUCCCCUGAUAGUGCUAAGGGGGCCUGGAAGUUUGGACUGGGCAGAUCUCAACACAGCGUGGCAAAGUGGCUGUGGCUAGACUGCCUCUCCGGAUUCCUCGUCACUCAGCAGGGCAUCUCUGAGAGAAAUGCC, the figure is 0.04; as for UACGUAGGUGGUUUUCCCCUGAUAGUGCUAAGGGGGCCUGGAAGUUUGGACUGGGCAGAACUCAACACAGCGUGGCAAAGUGGCUGUGGCUAGACUGCCUCUCUGGAUCCCUCGUCACUCAGCAGGGCAUCUCUGAGAGAAAUGCC, 0.02.

UACGUAGGUGGUUUUCCCCUGAUAGUGCUAAGGGGGCCUGGAAGUUUGGACUGGGCAGAACUCAACACAGCGUGGCAAAGUGGCUGUGGCUAGACUGCCUCUCUGGAUUCCUCGUCACUCAGCAGGGCAUCUCUGAGAGAAACGCC: the self-cleavage is 0. As for UACGUAGGUGGUUUUCCCCUGAUAGUGCUAAGGGGGCCUGGAAGUUUGGACUGGGCAGAACUCAACAUAGCGUGGCAAAGUGGCUGUGGCUAGACUGCCUCUCUGGAUUCCUCGUCACUCAGCAGGGCAUCUCUGAGAGAAAUGCC, the figure is 0.03; as for UACGUAGGUGGUUUUCCCCUGAUAGUGCUAAGGGGGCCUGGAAGUUUGGACUGGGCAGAACUCAACACAGCGUGGCAAAGUGGCUGUGGCUAGACUGCCUCUCUGGAUUCCUCGUCACUCAGCAGGACAUCUCUGAGAGAAAUGCC, 0.03; as for UACGUAGGUGGUUUUCCCCUGAUAGUGCUAAGGGGGCCUGGAAGUUUGGACUGGGCAGAUCUCAACACAGCGUGGCAAAGUGGCUGUGGCUAGACUGCCUCUCUGGAUUCCUCGUCACUCAGCAGGGCAUCUCUGAGGGAAAUGCC, 0.04. As for UACGUAGGUGGUUUUCCCCUGAUAGUGCUAAGGGGGCCUGGAAGUUUGGACUGGGCAGAGAUCAACACAGCGUGGCAAAGUGGCUGUGGCUAGACUGCCUCCCUGGAUUCCUCGUCACUCAGCAGGGCAUCUCUGAGAGAAAUGCC, the figure is 0.05; as for UACGUAGGUGGUUUUCCCCUGAUAGUGCUAAGGGGGCCUGGAAGUUUGGACUGGGCAGACCUCAACACAGCGCGGCAAAGUGGCUGUGGCUAGACUGCCUCUCUGGAUUCCUCGUCACUCAGCAGGGCAUCUCUGAGAGAAAUGCC, 0.04. As for UACGUAGGUGGUUUUCCCCUGAUAGUGCUAAGGGGGCCUGGAAGUUUGGACUGGGCAGAUCUCUACACAGCGUGGCAAAGUGGCUGUGGCUAGACUGCCUCUCUGGAUUCCUCGUCACUCAGCAGGGCAUCUCUGAGAGAAAUGCC, the self-cleavage came to 0.05. With UACGUAGGUGGUUUUCCCCUGAUAGUGCUAAGGGGGCCUGGAAGUUUGGACUGGGCAGAGGUCAACACAGCGUGGCUAAGUGGCUGUGGCUAGACUGCCUCUCUGGAUUCCUCGUCACUCAGCAGGGCAUCUCUGAGAGAAAUGCC the figure was 0.04.

As for UACGUAGGUGGUUUUCCCCUGAUAGUGCUAAGGGGGCCUGGAAGUUUGGACUGGGCAGAACUCAACACAGCGUGGCAAAGUGGCUGUGGCUAGACUGCCUCUCUGGAUUCCUCGUCACUCAGCAGGGCAUCUCUGAGAUAAAUGCC, the self-cleavage is 0.03. As for UACGUAGGUGGUUUUCCCCUGAUAGUGCUAAGGGGGCCUGGAAGUUUGGACUGGGCAGAACUCAACACAGCGUGGCAAAGUGGCUGUGGCUAGACUGCCUCUCUGGAUUCGUCGUCACUCAGCAGGGCAUCUCUGAGAGAAAUGCC, the figure is 0.02; as for UACGUAGGUGGUUUUCCCCUGAUAGUGCUAAGGGGGCCUGGAAGUUUGGACUGGGCAGAACUCAACACAGCGUGGCAAAGUGGCUGUGGCUAGACUGCCUCUCUGGAUUCUUCGUCACUCAGCAGGGCAUCUCUGAGAGAAAUGCC, 0.04; as for UACGUAGGUGGUUUUCCCCUGAUAGUGCUAAGGGGGCCUGGAAGUUUGGACUGGGCAGAGAUCAACACUGCGUGGCAAAGUGGCUGUGGCUAGACUGCCUCUCUGGAUUCCUCGUCACUCAGCAGGGCAUCUCUGAGAGAAAUGCC, 0.02. With UACGUAGGUGGUUUUCCCCUGAUAGUGCUAAGGGGGCCUGGAAGUUUGGACUGGGCAGAGAUCAACACAGCGUGGCAGAGUGGCUGUGGCUAGACUGCCUCUCUGGAUUCCUCGUCACUCAGCAGGGCAUCUCUGAGAGAAAUGCC the figure was 0.04. For UACGUAGGUGGUUUUCCCCUGAUAGUGCUAAGGGGGCCUGGAAGUUUGGACUGGGCAGAGGUCAACACAGCGUGGCAAAGUGGCCGUGGCUAGACUGCCUCUCUGGAUUCCUCGUCACUCAGCAGGGCAUCUCUGAGAGAAAUGCC, the self-cleavage stood at 0.15. UACGUAGGUGGUUUUCCCCUGAUAGUGCUAAGGGGGCCUGGAAGUUUGGACUGGGCAGAGAUCAACACAGCGUGGCAAAGUGGCUGUGGCUAGACUGCCUCUCUGGGUUCCUCGUCACUCAGCAGGGCAUCUCUGAGAGAAAUGCC: the self-cleavage amounted to 0. With UACGUAGGUGGUUUUCCCCUGAUAGUGCUAAGGGGGCCUGGAAGUUUGGACUGGGCAGAACUCAACACAGCGCGGCAAAGUGGCUGUGGCUAGACUGCCUCUCUGGAUUCCUCGUCACUCAGCAGGGCAUCUCUGAGAGAAAUGCC the figure was 0.02; with UACGUAGGUGGUUUUCCCCUGAUAGUGCUAAGGGGGCCUGGAAGUUUGGACUGGGCAGAACUCAACACAGCGAGGCAAAGUGGCUGUGGCUAGACUGCCUCUCUGGAUUCCUCGUCACUCAGCAGGGCAUCUCUGAGAGAAAUGCC, 0.02. As for UACGUAGGUGGUUUUCCCCUGAUAGUGCUAAGGGGGCCUGGAAGUUUGGACUGGGCAGAACUCAACACAGCGUGGCAAAGUGGCUGUGGCUAGACUGCCUCUCUGGAUUCCUCGUCACUCAGCAGGGCAUCUCUGAGAGAAAUGCA, the figure is 0.02. Turning to UACGUAGGUGGUUUUCCCCUGAUAGUGCUAAGGGGGCCUGGAAGUUUGGACUGGGCAGAACUCAACACAGCGUGGCAAAGUGGCUGUGGCUAGACUGCCUCUCUGGAUUCCUUGUCACUCAGCAGGGCAUCUCUGAGAGAAAUGCC, the self-cleavage came out at 0. As for UACGUAGGUGGUUUUCCCCUGAUAGUGCUAAGGGGGCCUGGAAGUUUGGACUGGGCAGAUCUCAUCACAGCGUGGCAAAGUGGCUGUGGCUAGACUGCCUCUCUGGAUUCCUCGUCACUCAGCAGGGCAUCUCUGAGAGAAAUGCC, the figure is 0.02; as for UACGUAGGUGGUUUUCCCCUGAUAGUGCUAAGGGGGCCUGGAAGUUUGGACUGGGCAGAACUCAACACAGCGUGGCAAAGUGGCUGUGGCUAGACUGCCUCUCUGGAUUCCUCGUCACACAGCAGGGCAUCUCUGAGAGAAAUGCC, 0.11; as for UACGUAGGUGGUUUUCCCCUGAUAGUGCUAAGGGGGCCUGGAAGUUUGGACUGGGCAGAACUCAACACAGCGUGGCAAAGUGGCUGUGGCUAGACCGCCUCUCUGGAUUCCUCGUCACUCAGCAGGGCAUCUCUGAGAGAAAUGCC, 0.01. As for UACGUAGGUGGUUUUCCCCUGAUAGUGCUAAGGGGGCCUGGAAGUUUGGACUGGGCAGAACUCAACACAGCGUGGCAAAGUGGCUGUGGCUAGACAGCCUCUCUGGAUUCCUCGUCACUCAGCAGGGCAUCUCUGAGAGAAAUGCC, the figure is 0.03; as for UACGUAGGUGGUUUUCCCCUGAUAGUGCUAAGGGGGCCUGGAAGUUUGGACUGGGCAGAAGUCAACACAGCGUGGCAAAGUGGCUGUGGCUAGACUGCCUCUCUGGAUUCCUCGUCACUCAGCAGGGCAUCUCUGAGAGAAAUGCC, 0.04. With UACGUAGGUGGUUUUCCCCUGAUAGUGCUAAGGGGGCCUGGAAGUUUGGACUGGGCAGACCUCAACACAGCGUGGCAAAGUGGCUGUGGCUAGACAGCCUCUCUGGAUUCCUCGUCACUCAGCAGGGCAUCUCUGAGAGAAAUGCC the figure was 0.04; with UACGUAGGUGGUUUUCCCCUGAUAGUGCUAAGGGGGCCUGGAAGUUUGGACUGGGCAGAACUCAACACAGCGUGGCAAAGUGGCUGUGGCUAGACUGCCUCUCUGGAUUCCUCGCCACUCAGCAGGGCAUCUCUGAGAGAAAUGCC, 0.04. As for UACGUAGGUGGUUUUCCCCUGAUAGUGCUAAGGGGGCCUGGAAGUUUGGACUGGGCAGAACUCAACACAGCGUGGCAAAGUGGCUGUGGCUAGACUGCCUCCCUGGAUUCCUCGUCACUCAGCAGGGCAUCUCUGAGAGAAAUGCC, the self-cleavage is 0.01. As for UACGUAGGUGGUUUUCCCCUGAUAGUGCUAAGGGGGCCUGGAAGUUUGGACUGGGCAGAGACCAACACAGCGUGGCAAAGUGGCUGUGGCUAGACUGCCUCUCUGGAUUCCUCGUCACUCAGCAGGGCAUCUCUGAGAGAAAUGCC, the figure is 0.08; as for UACGUAGGUGGUUUUCCCCUGAUAGUGCUAAGGGGGCCUGGAAGUUUGGACUGGGCAGAGGUCAACACAGCGUGGCAAAGUGGCUGUGGCUAGACUGCCUCUCUGGAUUCCUCGUCACUCAGCUGGGCAUCUCUGAGAGAAAUGCC, 0.11. As for UACGUAGGUGGUUUUCCCCUGAUAGUGCUAAGGGGGCCUGGAAGUUUGGACUGGGCAGAACUCAACACAGCGUGGCAAAGUGGCUGUGGCUAGACUGCCUCUCUUGAUUCCUCGUCACUCAGCAGGGCAUCUCUGAGAGAAAUGCC, the figure is 0.01.
